The chains are these.
B1: Homeobox protein cut-like 1, residues 548 to 629; numbered along this chain, P39880 (parent)
chain: GEEMDTAEIARQVKEQLIKHNIGQRIFGHYVLGLSQGSVSEILARPKPWNKLTVRGKEPFHKMKQFLSDEQNILALRSIQGR

± gives the uncertainty stated by the source.

The series covers variants of B1. Description: abundance fitness (aPCA) (normalised: wild type 0, dead -1); higher = more abundant; growth selection in yeast, the domain comes from the species named. The settings on record: Homo sapiens.
Turning to GEEMDTAEIARQVKEQLIKHNIGQRIFGHYVLGLSQGSVSEDLARPKPWNKLTVRGKEPFHKMKQFLSDEQNILALRSIQGR [I42D], the abundance fitness is -0.723 ± 0.082.
As to GEEMDTAEIARQVKEQLIKHNIGQRIFGHYVLGLSQGSVSEELARPKPWNKLTVRGKEPFHKMKQFLSDEQNILALRSIQGR [I42E], the abundance fitness is -0.707 ± 0.046.
For the variant GEEMDTAEIARQVKEQLIKHNIGQRIFGHYVLGLSQGSVSEFLARPKPWNKLTVRGKEPFHKMKQFLSDEQNILALRSIQGR [I42F], the abundance fitness is -0.242 ± 0.086.
For GEEMDTAEIARQVKEQLIKHNIGQRIFGHYVLGLSQGSVSEQLARPKPWNKLTVRGKEPFHKMKQFLSDEQNILALRSIQGR [I42Q], the abundance fitness was -0.564 ± 0.06.
For the variant GEEMDTAEIARQVKEQLIKHNIGQRIFGHYVLGLSQGSVSEKLARPKPWNKLTVRGKEPFHKMKQFLSDEQNILALRSIQGR [I42K], the abundance fitness is -0.747 ± 0.073.
Turning to GEEMDTAEIARQVKEQLIKHNIGQRIFGHYVLGLSQGSVSENLARPKPWNKLTVRGKEPFHKMKQFLSDEQNILALRSIQGR [I42N], the abundance fitness is -0.633 ± 0.12.
For GEEMDTAEIARQVKEQLIKHNIGQRIFGHYVLGLSQGSVSEPLARPKPWNKLTVRGKEPFHKMKQFLSDEQNILALRSIQGR [I42P], the abundance fitness was -0.819 ± 0.11.
As for GEEMDTAEIARQVKEQLIKHNIGQRIFGHYVLGLSQGSVSECLARPKPWNKLTVRGKEPFHKMKQFLSDEQNILALRSIQGR [I42C], the abundance fitness was -0.253 ± 0.049.
For GEEMDTAEIARQVKEQLIKHNIGQRIFGHYVLGLSQGSVSEYLARPKPWNKLTVRGKEPFHKMKQFLSDEQNILALRSIQGR [I42Y], the abundance fitness is -0.351 ± 0.085.
Consider GEEMDTAEIARQVKEQLIKHNIGQRIFGHYVLGLSQGSVSEVLARPKPWNKLTVRGKEPFHKMKQFLSDEQNILALRSIQGR [I42V], for which the abundance fitness was -0.104 ± 0.028.
Consider GEEMDTAEIARQVKEQLIKHNIGQRIFGHYVLGLSQGSVSEMLARPKPWNKLTVRGKEPFHKMKQFLSDEQNILALRSIQGR [I42M], for which the abundance fitness came to 0.004 ± 0.038.
The result for GEEMDTAEIARQVKEQLIKHNIGQRIFGHYVLGLSQGSVSEIMARPKPWNKLTVRGKEPFHKMKQFLSDEQNILALRSIQGR [L43M] reads -0.235 ± 0.038; that for GEEMDTAEIARQVKEQLIKHNIGQRIFGHYVLGLSQGSVSEIDARPKPWNKLTVRGKEPFHKMKQFLSDEQNILALRSIQGR [L43D], -0.68 ± 0.1.
With GEEMDTAEIARQVKEQLIKHNIGQRIFGHYVLGLSQGSVSEIHARPKPWNKLTVRGKEPFHKMKQFLSDEQNILALRSIQGR [L43H], the abundance fitness is -1.04 ± 0.19.
The result for GEEMDTAEIARQVKEQLIKHNIGQRIFGHYVLGLSQGSVSEIYARPKPWNKLTVRGKEPFHKMKQFLSDEQNILALRSIQGR [L43Y] reads -0.699 ± 0.13.
For the variant GEEMDTAEIARQVKEQLIKHNIGQRIFGHYVLGLSQGSVSEIFARPKPWNKLTVRGKEPFHKMKQFLSDEQNILALRSIQGR [L43F], the abundance fitness was -0.146 ± 0.07.
For the variant GEEMDTAEIARQVKEQLIKHNIGQRIFGHYVLGLSQGSVSEIKARPKPWNKLTVRGKEPFHKMKQFLSDEQNILALRSIQGR [L43K], the abundance fitness was -1.03 ± 0.078.
Turning to GEEMDTAEIARQVKEQLIKHNIGQRIFGHYVLGLSQGSVSEIAARPKPWNKLTVRGKEPFHKMKQFLSDEQNILALRSIQGR [L43A], the abundance fitness is -0.772 ± 0.043.
Under GEEMDTAEIARQVKEQLIKHNIGQRIFGHYVLGLSQGSVSEICARPKPWNKLTVRGKEPFHKMKQFLSDEQNILALRSIQGR [L43C] stands -0.843 ± 0.1; under GEEMDTAEIARQVKEQLIKHNIGQRIFGHYVLGLSQGSVSEIGARPKPWNKLTVRGKEPFHKMKQFLSDEQNILALRSIQGR [L43G], -0.929 ± 0.043.
The result for GEEMDTAEIARQVKEQLIKHNIGQRIFGHYVLGLSQGSVSEIQARPKPWNKLTVRGKEPFHKMKQFLSDEQNILALRSIQGR [L43Q] reads -0.807 ± 0.069.
For the variant GEEMDTAEIARQVKEQLIKHNIGQRIFGHYVLGLSQGSVSEIPARPKPWNKLTVRGKEPFHKMKQFLSDEQNILALRSIQGR [L43P], the abundance fitness is -0.926 ± 0.073.
With GEEMDTAEIARQVKEQLIKHNIGQRIFGHYVLGLSQGSVSEIVARPKPWNKLTVRGKEPFHKMKQFLSDEQNILALRSIQGR [L43V], the abundance fitness is -0.769 ± 0.043.
As to GEEMDTAEIARQVKEQLIKHNIGQRIFGHYVLGLSQGSVSEISARPKPWNKLTVRGKEPFHKMKQFLSDEQNILALRSIQGR [L43S], the abundance fitness was -0.865 ± 0.065.
Turning to GEEMDTAEIARQVKEQLIKHNIGQRIFGHYVLGLSQGSVSEINARPKPWNKLTVRGKEPFHKMKQFLSDEQNILALRSIQGR [L43N], the abundance fitness is -1 ± 0.16.
With GEEMDTAEIARQVKEQLIKHNIGQRIFGHYVLGLSQGSVSEIEARPKPWNKLTVRGKEPFHKMKQFLSDEQNILALRSIQGR [L43E], the abundance fitness was -0.89 ± 0.062.
On to GEEMDTAEIARQVKEQLIKHNIGQRIFGHYVLGLSQGSVSEIRARPKPWNKLTVRGKEPFHKMKQFLSDEQNILALRSIQGR [L43R], for which the abundance fitness is -1 ± 0.048.
For GEEMDTAEIARQVKEQLIKHNIGQRIFGHYVLGLSQGSVSEITARPKPWNKLTVRGKEPFHKMKQFLSDEQNILALRSIQGR [L43T], the abundance fitness is -0.922 ± 0.1.
As for GEEMDTAEIARQVKEQLIKHNIGQRIFGHYVLGLSQGSVSEIIARPKPWNKLTVRGKEPFHKMKQFLSDEQNILALRSIQGR [L43I], the abundance fitness was -0.534 ± 0.1.
For GEEMDTAEIARQVKEQLIKHNIGQRIFGHYVLGLSQGSVSEIWARPKPWNKLTVRGKEPFHKMKQFLSDEQNILALRSIQGR [L43W], the abundance fitness was -0.743 ± 0.057.
The result for GEEMDTAEIARQVKEQLIKHNIGQRIFGHYVLGLSQGSVSEILAAPKPWNKLTVRGKEPFHKMKQFLSDEQNILALRSIQGR [R45A] reads 0.03 ± 0.029.
With GEEMDTAEIARQVKEQLIKHNIGQRIFGHYVLGLSQGSVSEILAEPKPWNKLTVRGKEPFHKMKQFLSDEQNILALRSIQGR [R45E], the abundance fitness is -0.009 ± 0.031.
Under GEEMDTAEIARQVKEQLIKHNIGQRIFGHYVLGLSQGSVSEILADPKPWNKLTVRGKEPFHKMKQFLSDEQNILALRSIQGR [R45D] stands -0.033 ± 0.047; under GEEMDTAEIARQVKEQLIKHNIGQRIFGHYVLGLSQGSVSEILACPKPWNKLTVRGKEPFHKMKQFLSDEQNILALRSIQGR [R45C], -0.001 ± 0.052.

(Values after the Human Domainome abundance scans (Beltran et al. 2025).)
